Reference: paper doi:10.1101/382812

Molecular target: Hcf106 G6CV14C (Pisum sativum)
Assay: cross-linking

Hcf106 G6CV14C (natural protein)
stoichiometry N: < 8
